Source: patent US11866736B2, “Protein prostheses for mitochondrial diseases or conditions” (The General Hospital Corporation, priority 2015, dated 2024)

Experiments:
HeLa Tet3G cells [1] = assay: Cell proliferation assays: rescue of the proliferation defect induced by respiratory chain inhibitors (nuclei counting); assay type: cell-based, human; settings: no pyruvate, doxycycline-inducible expression; for rescue of proliferation defect caused by piericidin: 1 μM piericidin
Experimental: Five hundred HeLa Tet3G NDI1, Luciferase, LbNOX or mitoLbNOX cells were seeded in 200 μl of DMEM (DMEM (US Biological, D9800), 3.7 g/L NaHCO3, 10% dialyzed FBS (Life Technologies, 26400-044)) per well in a black 96-well plate with clear bottom (Corning, 3904). Twenty four hours after seeding, media was exchanged to DMEM without pyruvate (DMEM (US Biological, D9802), 15.9 mg/L phenol red, 3.7 g/L NaHCO3, 10% dialyzed FBS (Life Technologies, 26400-044))±10 μg/ml chloramphenicol±30 ng/ml ethidium bromide±1 mM pyruvate±300 ng/ml doxycycline. After 0, 2, 3, 4, 5 and 6 days, media was aspirated and cells were fixed by adding 100 μl of 4% paraformaldehyde in PBS and incubating at room temperature for at least 30 min. Paraformaldehyde solution was aspirated and cells were stained with 200 μl of 1 μg/ml Hoechst 33345 in PBS. Plates were covered with sealing aluminum foil and stored at 4° C. before counting cells in each well with Molecular Dynamics IMAGEXPRESS® Ultra (see “Nuclei counting using Molecular Devices IMAGEXPRESS® Ultra,” below).
One thousand HeLa Tet3G NDI1, Luciferase, LbNOX or mitoLbNOX cells were seeded in 200 μl of DMEM (DMEM (US Biological, D9800), 3.7 g/L NaHCO3, 10% dialyzed FBS (Life Technologies, 26400-044)) per well in a black 96-well plate with clear bottom (Corning, 3904). Twenty four hours after seeding, 10 μl of 6 μg/ml doxycycline (300 ng/ml final concentration) or water was added to each well. Twenty four hours after addition of doxycycline, media was exchanged to DMEM without pyruvate (DMEM (US Biological, D9802), 15.9 mg/L phenol red, 3.7 g/L NaHCO3, 10% dialyzed FBS (Life Technologies, 26400-044)), ±1 μM piericidin, ±1 μM antimycin, ±1 mM pyruvate and ±300 ng/ml doxycycline. After 0, 1, 2, 3 and 4 days, media was aspirated and cells were fixed by adding 100 μl of 4% paraformaldehyde in PBS and incubating at room temperature for at least 30 min. Paraformaldehyde solution was aspirated and cells were stained with 200 μl of 1 μg/ml Hoechst 33345. Plates were covered with sealing aluminum foil and stored at 4° C. before counting cells in each well with Molecular Dynamics IMAGEXPRESS® Ultra (see “Nuclei counting using Molecular Devices IMAGEXPRESS® Ultra,” below).
Two thousand HeLa Tet3G Luciferase cells were seeded in 200 μl of DMEM (DMEM (US Biological, D9800), 3.7 g/L NaHCO3, 10% dialyzed FBS (Life Technologies, 26400-044)) per well in a black 96-well plate with clear bottom (Corning, 3904). Twenty four hours after seeding, media was exchanged to DMEM without pyruvate (DMEM (US Biological, D9802), 15.9 mg/L phenol red, 3.7 g/L NaHCO3, 10% dialyzed FBS (Life Technologies, 26400-044))±1 μM piericidin, ±indicated concentrations of pyruvate, lactate, malate, oxaloacetate, nicotinamide mononucleotide ([…]) or PJ34. After 3 days, media was aspirated and cells were fixed by adding 100 μl of 4% paraformaldehyde in PBS and incubating at room temperature for at least 30 min. Paraformaldehyde solution was aspirated and cells were stained with 200 μl of 1 μg/ml Hoechst 33345. Plates were covered with sealing aluminum foil and stored at 4° C. before counting cells in each well with Molecular Dynamics IMAGEXPRESS® Ultra (see “Nuclei counting using Molecular Devices IMAGEXPRESS® Ultra,” below).
Images of 96-well plates with fixed cells stained with Hoechst 33345 were collected using Molecular Devices IMAGEXPRESS® Micro XLS. Four images were taken to cover the whole well. Images were analyzed and nuclei number per well was counted using CellProfiler 2.0 image analysis software (Carpenter, et al., Genome Biol., 7:R100, 2006; and Kamentsky, et al., Bioinformatics, 27:1179, 2011). […]

HeLa Tet3G cells [2] = assay: Glucose concentration-dependent cell survival; assay type: cell-based, human
Experimental: Images of 96-well plates with fixed cells stained with Hoechst 33345 were collected using Molecular Devices IMAGEXPRESS® Micro XLS. Four images were taken to cover the whole well. Images were analyzed and nuclei number per well was counted using CellProfiler 2.0 image analysis software (Carpenter, et al., Genome Biol., 7:R100, 2006; and Kamentsky, et al., Bioinformatics, 27:1179, 2011).
Ten thousand HeLa Tet3G NDI1, Luciferase, LbNOX or mitoLbNOX cells were seeded in 200 μl of DMEM (DMEM (US Biological, D9800), 3.7 g/L NaHCO3, 10% dialyzed FBS (Life Technologies, 26400-044)) per well of a black 96-well plate with clear bottom (Corning, 3904). Twenty four hours after seeding, 10 μl of 6 μg/ml doxycycline (300 ng/ml final concentration) or water was added to each well. Twenty four hours after addition of doxycycline, media was exchanged to DMEM (DMEM (US Biological, D9800), 3.7 g/L NaHCO3, 10% dialyzed FBS (Life Technologies, 26400-044))±300 ng/ml doxycycline. […] After 24 hours, media was aspirated and cells were fixed by adding 100 μl of 4% paraformaldehyde in PBS and incubating at room temperature for at least 30 min. Paraformaldehyde solution was aspirated and cells were stained with 200 μl of 1 μg/ml Hoechst 33345. Plates were covered with sealing aluminum foil and stored at 4° C. before counting cells in each well with Molecular Dynamics IMAGEXPRESS® Ultra (see “Nuclei counting using Molecular Devices IMAGEXPRESS® Ultra,” above).

B1: LbNOX: water-forming NADH oxidase endogenous to Lactobacillus brevis; tested with C-terminal FLAG tag (protein, listed as Lactobacillus brevis)
chain: KVTVVGCTHAGTFAIKQILAEHPDAEVTVYERNDVISFLSCGIALYLGGKVADPQGLFYSSPEELQKLGANVQMNHNVLAIDPDQKTVTVEDLTNHAQTTESYDKLVMTSGSWPIVPKIPGIDSDRVKLCKNWAHAQALIEDAKEAKRITVIGAGYIGAELAEAYSTTGHDVTLIDAMARVMPKYFDADFTDVIEQDYRDHGVQLALGETVESFTDSATGLTIKTDKNSYETDLAILCIGFRPNTDLLKGKVDMAPNGAIITDDYMRSSNPDIFAAGDSAAVHYNPTHQNAYIPLATNAVRQGILVGKNLVKPTVKYMGTQSSSGLALYDRTIVSTGLTLAAAKQQGLNAEQVIVEDNYRPEFMPSTEPVLMSLVFDPDTHRILGGALMSKYDVSQSANTLSVCIQNENTIDDLAMVDMLFQPNFDRPFNYLNILAQAAQAKVAQSVNA
modifications: C-terminal FLAG tag
rescue of proliferation defect caused by ethidium bromide (HeLa Tet3G cells [1]; 30 ng/ml ethidium bromide): rescued completely | rescue of proliferation defect caused by antimycin (HeLa Tet3G cells [1]; 1 μM antimycin): rescued completely | rescue of proliferation defect caused by piericidin (HeLa Tet3G cells [1]): rescued completely | rescue of proliferation defect caused by chloramphenicol (HeLa Tet3G cells [1]; 10 μg/ml chloramphenicol): rescued completely | effect on decrease in cell number (cell survival) at low glucose concentrations in the presence of piericidin (HeLa Tet3G cells [2]; 1 μM piericidin, 24 hours): no effect | effect on decrease in cell number (cell survival) at low glucose concentrations in the presence of antimycin (HeLa Tet3G cells [2]; antimycin): no effect

B2: TPNOX: NADPH-specific quintuple mutant (G159A/D177A/A178R/M179S/P184R) of LbNOX (protein)
chain: KVTVVGCTHAGTFAIKQILAEHPDAEVTVYERNDVISFLSCGIALYLGGKVADPQGLFYSSPEELQKLGANVQMNHNVLAIDPDQKTVTVEDLTNHAQTTESYDKLVMTSGSWPIVPKIPGIDSDRVKLCKNWAHAQALIEDAKEAKRITVIGAGYIAAELAEAYSTTGHDVTLIARSARVMRKYFDADFTDVIEQDYRDHGVQLALGETVESFTDSATGLTIKTDKNSYETDLAILCIGFRPNTDLLKGKVDMAPNGAIITDDYMRSSNPDIFAAGDSAAVHYNPTHQNAYIPLATNAVRQGILVGKNLVKPTVKYMGTQSSSGLALYDRTIVSTGLTLAAAKQQGLNAEQVIVEDNYRPEFMPSTEPVLMSLVFDPDTHRILGGALMSKYDVSQSANTLSVCIQNENTIDDLAMVDMLFQPNFDRPFNYLNILAQAAQAKVAQSVNA
rescue of proliferation defect caused by piericidin (HeLa Tet3G cells [1]): not
